Laboratory results reported in patent US12702694B2, “Methods for identification, assessment, prevention, and treatment of metabolic disorders using SLIT2” (Dana-Farber Cancer Institute, Inc., priority 2015, dated 2026).

Assays:
Assay type in all cases: cell-based, Mus musculus
primary brown fat cells = assay: Thermogenic gene expression in primary brown fat cells with adenoviral overexpression; conditions: Slit2-C vs LacZ virus, day 7; FIG. 6B
Procedure: Inguinal and brown stromal-vascular fractions were obtained from 6 weeks old male or newborn mice (postnatal days 5-10) for white and brown fat cultures, respectively. Inguinal fat tissue was dissected and washed with PBS, minced and digested for 45 min at 37° C. in PBS containing 10 mM CaCl2), 2.4 U/ml dispase II (Roche) and 10 mg/ml collagenase D (Roche). Brown fat tissue was dissected, washed with PBS, minced and digested for 45 min at 37° C. in PBS containing 1.3 mM CaCl2, 123 mM NaCl, 5 mM KCl, 5.0 mM glucose, 100 mM HEPES, 4% BSA and 1.5 mg/ml collagenase B (Roche). Digested tissue was filtered through a 100-μm cell strainer and centrifuged at 600 g for 10 min. […] For adenoviral overexpression of Slit2-FL, Slit2-N, Slit2-C, LacZ or Cre, virus was added at day 2 of differentiation at a titer of 10^8 particles/well and cells were analyzed at day 6-7. […]
RNA was extracted from cultured cells or frozen tissue samples using TRIzol®, purified with QIAGEN RNeasy® minicolumns. Normalized RNA was reversed transcribed using a high-capacity cDNA reverse transcription lot (Applied Biosystems) and cDNA was analyzed by qRT-CPR. Relative mRNA levels were calculated using the comparative CT method and normalized to cyclophilin […]. […]

[1] = system: primary inguinal fat cells; assay: Cellular oxygen consumption measured by Seahorse; conditions: recombinant Slit2-C 1 ug/mL (Calico/AbbVie), acute or 2 h treatment; FIG. 13
Procedure: Tissue respiration was performed using a Clark electrode (Stathkelvin Instruments). Freshly isolated tissues were dissected from mice treated with LacZ or Slit2-C adenovirus for 7 days. Equally sized pieces of tissue were minced and placed in respiration buffer containing PBS supplemented with 2% (w/v) bovine serum albumin, 1% (w/v) glucose, and 1 mM Na pyruvate. Oxygen (O2) consumption was normalized to tissue weight. Cellular oxygen consumption rates were determined using an XF24 Extracellular Flux Analyzer (Seahorse Biosciences). Primary brown fat adipocytes were seeded at 15,000 cells/well, differentiation was induced the following day as previously described, and the cells were analyzed on day 5. On the day of analysis, the cells were washed once with Seahorse respiration buffer (8.3 g/l DMEM, 1.8 g/l NaCl, 1 mM pyruvate, 20 mM glucose, pen/strep), placed in 0.5 ml Seahorse respiration buffer, and incubated in a C02-free incubator for 1 hr. […]
As described above in Examples 5-7, in vitro and in vivo data on respiration using Slit2-C adenovirus overexpression models and loss-of-function analyses in Seahorse assays are described. In vitro confirmation of the results was determined using an alternative source of recombinant Slit2-C (FIG. 13). […] Cellular oxygen consumption rates were determined as described in Example 1 Statistical analysis was performed as described in Example 1C above.

[2] = system: receptor tyrosine kinases and intracellular kinases; assay: Phosphokinase array in primary inguinal cells; conditions: Slit2-C vs lacZ adenovirus, primary inguinal adipocytes
Procedure: For Western blotting, homogenized tissues, whole cell lysates, or concentrated serum free conditioned medium were lysed in RIPA buffer containing protease inhibitor cocktail (Thermo Scientific) and phosphatase inhibitor cocktail (Thermo Scientific), separated by SDS-PAGE and transferred to Immobilon-P® membranes (Millipore). For Western blotting of plasma samples, 1 μl of plasma was prepared containing 2× sample buffer (Invitrogen) with reducing agent, boiled and analyzed using Western blot against V5, FLAG, or the indicated antibody. V5-antibody was from Life Technologies and anti-Flag M2-HRP (A8592) from Sigma Aldrich. Anti-Slit2 antibody used was from Abcam (Abcam ab134166). Phospho-PKA Substrate, phospho-PKC Substrate, phospho-ERK1/2, total ERK, phospho-AKT, total AKT, phospho-AMPK, total AMPK, phospho-ATGL, ATGL, phospho-EGFR and EGFR were from Cell Signaling. Protein array was from R&D Systems (Proteome Profiler Mouse Phospho-RTK Array Kit, ARY014). Silverstain (SilverQuest™ Silver Staining Kit, LC6070) was purchased from Thermo Fisher.

B1: Slit2-C: ~50 kDa C-terminal cleavage fragment of Slit2 beginning at TSP (SEQ ID NO: 22); adenovirally expressed or purified FLAG-tagged protein (protein, listed as Homo sapiens)
chain: TSPCDNFDCQNGAQCIIRINEPICQCLPGYLGEKCEKLVSVNFVNKESYLQIPSAKVRPQTNITLQIATDEDSGILLYKGDKDHIAVELYRGRVRASYDTGSHPASAIYSVETINDGNFHIVELLTLDSSLSLSVDGGSPKVITNLSKQSTLNFDSPLYVGGMPGKNNVASLRQAPGQNGTSFHGCIRNLYINSELQDFRKMPMQTGILPGCEPCHKKVCAHGMCQPSSQSGFTCECEEGWMGPLCDQRTNDPCLGNKCVHGTCLPINAFSYSCKCLEGHGGVLCDEEEDLFNPCQMIKCKHGKCRLSGVGQPYCECNSGFTGDSCDREISCRGERIRDYYQKQQGYAACQTTKKVSRLECRGGCAGGQCCGPLRSKRRKYSFECTDGSSFVDEVEKVVKCGCARCAS
modifications: FLAG tag
notes: adenovirally expressed or purified FLAG-tagged protein
thermogenic gene expression response of primary brown fat cells (primary brown fat cells): responded stronger
cellular oxygen consumption vs results of Examples 5-7 [1]: confirm the results
phospho-EGFR and phospho-ERK1/2 (only two of 39 kinases tested) [2]: robust phosphorylation changes
